Source: IntAct's records for PubMed 22232549

B1: Extra-large guanine nucleotide-binding protein 2 (Arabidopsis thaliana (Mouse-ear cress)), C6KIE6 (parent)
chain: MAAVIRKLLPFPSPNPKRDNRESDDDDETSSGYRIEYSFASEYKGPLIANVPRALPVEVDQIPTALPVSFSSLRSGISYPVAPLVMTKDTKRPPDSGIEKKNGFVDSAAGSSVVLIGRDVVSGSSSSSSSKRLDVPEEVKSPADFRLSPSSPLSASAREEDHLDDDRVSDVGPRAVRFVEPFQSSECDESSYVSDGESIAATHRAERKGKRGSCYRCQLGNRFTEKEVCIVCDAKYCFNCVRRAMGAMPEGRKCQACIGYRIDESKRASLGKCSRMLKRHLTDSELRQVMNAEITCKANQLPSRLIIVNDKPLSEDELYTLQTCPNPPKKLKPGHYWYDKVAGYWGKIGEKPSQIISPNNSIGGYISEKVSNGDTEIYINGREITKPELTMLKWAGVQCEGKPHFWVDSDGSYREEGQKHPIGNIWSKKRAKIACAVFSLPVPPASSAVEPYDVPLYEQKMLNKLLLIGSEKGGATTIYKQARSLYNVSFSLEDRERIKFIIQTNLYTYLAMVLEAHERFEKEMSNDQSSGNVGDETSAKPGNSINPRLKHFSDWVLKEKEDGNLKIFPPSSRENAQTVADLWRVPAIQATYKRLRDTLPRNAVYFLERILEISRSEYDPSDMDILQAEGLSSMEGLSCVDFSFPSTSQEESLESDYQHDTDMKYQLIRLNPRSLGENWKLLEMFEDADLVIFCVSLTDYAENIEDGEGNIVNKMLATKQLFENMVTHPSLANKRFLLVLTKFDLLEEKIEEVPLRTCEWFEDFNPLISQNQTSRHNPPMAQRAFHYIGYKFKRLYDSILEPVNMRGRSFKPKLFVCQVSLESDTVDNALRYAREILKWHVEETSMFQEMSTTSIEASSSS
partner: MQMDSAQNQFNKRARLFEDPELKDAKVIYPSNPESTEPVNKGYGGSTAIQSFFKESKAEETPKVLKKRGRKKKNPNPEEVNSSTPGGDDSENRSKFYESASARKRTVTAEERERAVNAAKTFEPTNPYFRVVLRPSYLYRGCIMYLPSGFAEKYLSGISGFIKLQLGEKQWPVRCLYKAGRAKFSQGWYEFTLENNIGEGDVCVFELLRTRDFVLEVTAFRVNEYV

Variants of: B1
Conditions: with rem19_arath REM19, Q9XIB5

| effect of a mutation on the interaction | Variant |
| --- | --- |
| disrupting interaction | T476N |
